Values quoted from earlier work, collected in PMC4303274.
pKd: −log10 of the molar value. Like-named read-outs stand apart in the source and are kept apart here.

How the values were obtained:
[1] = biological target: neurogranin (Homo sapiens) (UniProt Q92686)
[2] = biological target: CaMKII (Homo sapiens) (UniProt Q9UQM7)
[3] = biological target: CaMKII (Homo sapiens) (UniProt Q9UQM7); remark: listed apart in the source

Chain of CaMKII (Homo sapiens) (Q9UQM7 whole entry): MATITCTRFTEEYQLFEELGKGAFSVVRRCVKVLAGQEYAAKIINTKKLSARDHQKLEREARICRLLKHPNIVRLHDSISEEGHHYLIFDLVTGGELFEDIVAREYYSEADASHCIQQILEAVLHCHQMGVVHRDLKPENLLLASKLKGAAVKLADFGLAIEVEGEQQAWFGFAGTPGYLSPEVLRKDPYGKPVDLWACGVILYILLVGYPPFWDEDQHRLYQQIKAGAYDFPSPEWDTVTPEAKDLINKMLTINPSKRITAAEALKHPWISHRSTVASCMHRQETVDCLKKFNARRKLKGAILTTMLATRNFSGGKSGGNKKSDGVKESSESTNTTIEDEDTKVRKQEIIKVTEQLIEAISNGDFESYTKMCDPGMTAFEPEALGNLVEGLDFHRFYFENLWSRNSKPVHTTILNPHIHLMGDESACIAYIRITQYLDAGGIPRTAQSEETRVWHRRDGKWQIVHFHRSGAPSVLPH
Chain of neurogranin (Homo sapiens) (Q92686 whole entry): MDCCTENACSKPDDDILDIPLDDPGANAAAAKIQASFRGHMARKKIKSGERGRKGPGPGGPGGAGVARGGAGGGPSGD

pKd [1]	pKd [2]	pKd [3]	Substance
5.98	6.02	–	calmodulin C-lobe fragment TR2C (R state) TR2C (from UniProt P0DP23)
–	–	4.06	calmodulin C-lobe fragment TR2C (T state) TR2C (from UniProt P0DP23)
